These results are taken from US20040265314A1 (Pfizer, published 2004).

The series concerns the molecule itself. Description: Western blot of conditioned media, reducing against non-reducing SDS-PAGE. The protocol:
Samples were combined with 2× SDS sample buffer with β-mercapatoethanol and boiled for 2 minutes. After boiling, the samples were loaded onto either a 4-20% gradient gel or 6% SDS gel. Gels were then transferred to nitrocellulose using an Invitrogen blotting apparatus (Invitrogen, Carlsbad, Calif.) and transfer buffer as provided by Invitrogen (Invitrogen, Carlsbad, Calif.). Gels were transferred for 2 hours at 30V under constant current. Nitrocellulose blots were blocked in 5% non-fat dry milk for 1 hour at room temperature. The blots were incubated with 0.5 μg/mL peptide polyclonal antibody overnight at 4° C. After incubation with the primary antibody, the blots were washed 3 times for 10 minutes each in washing buffer (1% Triton×100 (v/v), 0.1% SDS (w/v) in PBS, calcium and magnesium free) and then incubated for 30 minutes with mouse anti rabbit IgG conjugated to horseradish peroxidase (Santa Cruz Biotech, Santa Cruz, Calif.). The blots were washed 3 times for 10 minutes each in wash buffer and developed with the chemiluminescence reagent, ECL. (Amersham, Piscataway, N.J.). The blots were exposed to Kodak film and developed using a film developer.
The conditioned media from both COS and HEK293 transfectants were analyzed by Western blot under reducing and non-reducing conditions to assess whether CLCA1 exists as a multimer in the secreted milieu. […]
Background: Immunoblotting shows a protein as a band on a membrane.

B1: human CLCA1 (Calcium Activated Chloride Channel 1) (other)
chain: NSLIQLNNNGYEGIVVAIDPNVPEDETLIQQIKDMVTQASLYLFEATGKRFYFKNVAILIPETWKTKADYVRPKLETYKNADVLVAESTPPGNDEPYTEQMGNCGEKGERIHLTPDFIAGKKLAEYGPQGRAFVHEWAHLRWGVFDEYNNDEKFYLSNGRIQAVRCSAGITGTNVVKKCQGGSCYTKRCTFNKVTGLYEKGCEFVLQSRQTEKASIMFAQHVDSIVEFCTEQNHNKEAPNKQNQKCNLRSTWEVIRDSEDFKKTTPMTTQPPNPTFSLLQIGQRIVCLVLDKSGSMATGNRLNRLNQAGQLFLLQTVELGSWVGMVTFDSAAHVQSELIQINSGSDRDTLAKRLPAAASGGTSICSGLRSAFTVIRKKYPTDGSEIVLLTDGEDNTISGCFNEVKQSGAIIHTVALGPSAAQELEELSKMTGGLQTYASDQVQNNGLIDAFGALSSGNGAVSQRSIQLESKGLTLQNSQWMNGTVIVDSTVGKDTLFLITWTTQPPQILLWDPSGQKQGGFVVDKNTKMAYLQIPGIAKVGTWKYSLQASSQTLTLTVTSRASNATLPPITVTSKTNKDTSKFPSPLVVYANIRQGASPILRASVTALIESVNGKTVTLELLDNGAGADATKDDGVYSRYFTTYDTNGRYSVKVRALGGVNAARRRVIPQQSGALYIPGWIENDEIQWNPPRPEINKDDVQHKQVCFSRTSSGGSFVASDVPNAPIPDLFPPGQITDLKAEIHGGSLINLTWTAPGDDYDHGTAHKYIIRISTSILDLRDKFNESLQVNTTALIPKEANSEEVFLFKPENITFENGTDLFIAIQAVDKVDLKSEISNIARVSLFIPPQTPPETPSPDETSAPCPNIHINSTIPGIHILKIMWKWIGELQLSIA
notes: 914 amino acids; also called hCLCA1; soluble CLCA1
B1: the binding result is on record as “binds”.
